Values belong to the molecule of their own block, whether it stands above or below them.
Legend:
[1] = biological target: T1, recombinant human α5β1 integrin (rh-α5β1) (Homo sapiens, UniProt P05556+P08648); test: Plate-based ELISA reactivity to rh-α5β1; type: binding; conditions: selected for further characterization among α5 specific hybridomas (28 selected)
T1 construct: purchased R&D Systems 3230-A5
How it was run: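 Hybridoma supernatants, diluted 1:10, incubated 1 h at RT on wells coated with rh-α5β1 at 1 μg/mL in PBS with 0.5 mM MgCl2, MnCl2, CaCl2 and blocked with 2% BSA. Detection via biotinylated goat anti-mouse, poly-HRP streptavidin and TMB; absorbance 450 nm.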

[2] = biological target: T2, rh-α5β1 in active conformation (binding to 12G10) (Homo sapiens, UniProt P05556+P08648); test: 12G10 conformation assay (α5β1 integrin binding to 12G10); conditions: 0.5 mM MnCl2
T2 construct: purchased Acro Biosystems IT1-H52W5
T2 sequence (P08648 42-894 limits assumed): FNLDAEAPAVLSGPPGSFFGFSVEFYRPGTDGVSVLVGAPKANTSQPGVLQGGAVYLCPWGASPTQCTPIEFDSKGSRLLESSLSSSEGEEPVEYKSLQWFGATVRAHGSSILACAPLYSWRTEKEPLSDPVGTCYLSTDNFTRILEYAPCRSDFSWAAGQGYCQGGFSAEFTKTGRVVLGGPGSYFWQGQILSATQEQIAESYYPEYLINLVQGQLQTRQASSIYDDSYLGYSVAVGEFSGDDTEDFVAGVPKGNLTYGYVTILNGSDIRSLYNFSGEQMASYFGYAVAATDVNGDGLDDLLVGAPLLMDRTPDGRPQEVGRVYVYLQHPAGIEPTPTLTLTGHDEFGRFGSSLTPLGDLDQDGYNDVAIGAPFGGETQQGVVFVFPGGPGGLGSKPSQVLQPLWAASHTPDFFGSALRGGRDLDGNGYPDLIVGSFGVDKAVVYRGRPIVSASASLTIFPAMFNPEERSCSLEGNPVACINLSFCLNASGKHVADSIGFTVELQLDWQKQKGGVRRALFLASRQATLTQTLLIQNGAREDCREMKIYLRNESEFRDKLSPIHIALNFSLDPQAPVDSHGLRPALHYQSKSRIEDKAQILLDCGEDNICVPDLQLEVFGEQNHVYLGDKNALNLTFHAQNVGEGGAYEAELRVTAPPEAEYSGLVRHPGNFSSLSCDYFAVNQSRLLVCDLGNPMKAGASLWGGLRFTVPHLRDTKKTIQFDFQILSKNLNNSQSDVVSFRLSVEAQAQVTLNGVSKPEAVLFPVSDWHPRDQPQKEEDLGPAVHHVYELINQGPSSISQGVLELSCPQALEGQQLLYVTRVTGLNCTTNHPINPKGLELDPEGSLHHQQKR
T2 sequence (P08648 895-995 limits assumed): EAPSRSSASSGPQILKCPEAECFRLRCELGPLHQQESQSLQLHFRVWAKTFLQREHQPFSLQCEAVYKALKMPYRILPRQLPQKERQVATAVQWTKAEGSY
T2 sequence (P05556 21-728 limits assumed): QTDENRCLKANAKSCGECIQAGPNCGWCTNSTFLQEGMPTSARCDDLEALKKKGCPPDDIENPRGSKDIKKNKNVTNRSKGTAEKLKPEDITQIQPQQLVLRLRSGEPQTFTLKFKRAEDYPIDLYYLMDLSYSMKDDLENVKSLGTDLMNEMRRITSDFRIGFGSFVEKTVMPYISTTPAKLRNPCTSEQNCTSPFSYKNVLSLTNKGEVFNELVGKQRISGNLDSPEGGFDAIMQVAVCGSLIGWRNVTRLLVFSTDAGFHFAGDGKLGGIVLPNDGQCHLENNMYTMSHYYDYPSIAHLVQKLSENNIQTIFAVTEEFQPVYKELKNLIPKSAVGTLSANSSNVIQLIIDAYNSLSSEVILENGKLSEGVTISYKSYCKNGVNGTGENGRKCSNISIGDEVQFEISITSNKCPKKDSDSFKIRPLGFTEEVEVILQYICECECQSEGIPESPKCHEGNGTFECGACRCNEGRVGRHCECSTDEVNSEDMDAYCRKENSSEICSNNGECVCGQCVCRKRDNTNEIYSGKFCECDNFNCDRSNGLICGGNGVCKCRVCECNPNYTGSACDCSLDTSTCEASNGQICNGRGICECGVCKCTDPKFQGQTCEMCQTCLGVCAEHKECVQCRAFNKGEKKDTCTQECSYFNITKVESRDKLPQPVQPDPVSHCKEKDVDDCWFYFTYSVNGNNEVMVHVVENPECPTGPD
Procedure: A Nunc MaxiSorp Flat-Bottom 96-well plate (Invitrogen, Waltham, MA, cat. no. 44-2404-21) was coated with 12G10 antibody at 2 μg/mL in 0.2M carbonate-bicarbonate buffer, pH9.4 (Thermo Scientific, Rockford, IL, cat. No. 28382) by incubation overnight at 4° C. Plates were then washed 3 times with Wash Buffer (1× Tris Buffered Saline containing 0.05% Tween20), then blocked with 2% BSA in 1×TBS for 2 hours at room temperature (RT). The human IgG4 chimeric versions of the antibodies were diluted in Standard Diluent (2% BSA, 1×TBS, 0.05% Tween20) containing 0.05 μg/mL rh-α5β1-6×His tagged protein (Acro Biosystems, Newark, DE, cat. no. IT1-H52W5) and 0.5 mM MnCl2 (TEKnova, Hollister, CA, cat. no. M0350) to generate a 7 point 1:5 antibody dilution series ranging from 10,000 ng/mL to 0.64 ng/mL. In addition to human IgG4 chimeric antibodies A-15B08, C-14D12 and A2-7A05, three other antibodies tested included IgG4 isotype control (human IgG4, Kappa, anti-fluorescein Ab00102-13.0, Absolute Antibody, Wilton, UK), anti-integrin alpha-5 clone SNAKA51 (MilliporeSigma, St. Louis, MO, cat. no. MABT201) known to induce integrin alpha-5 into an active conformation, and finally the 12G10 antibody itself which can directly compete with the 12G10 bound to the MaxiSorp plate. For the assays, 100 μL of the antibody dilution series, His-tagged-α5β1 mixture was added to the wells after the blocking solution was removed and wells were washed 3 times. […] Absorbance 450 nm was measured. Data points were normalized to the absorbance of the well containing no antibody for each dilution series and reported as Percent Binding. […]

T1 sequence (P08648 42-894 limits assumed): as the sequence (P08648 42-894 limits assumed) above
T1 sequence (P08648 895-995 limits assumed): as the sequence (P08648 895-995 limits assumed) above
T1 sequence (P05556 21-728 limits assumed): as the sequence (P05556 21-728 limits assumed) above

- Selected Human α5 Specific [1]: Yes
B1: A2-7A05: anti-α5β1 antibody, VH SEQ ID NO:77, VL SEQ ID NO:78; tested as mouse hybridoma antibody and as human IgG4 chimera (antibody, V domains shown)
VH: QVQLQQPGAELVKPGASVKLSCKASGYTFTIYWINWVKQRPGQGLEWIGKIYPGSISTDYNEKFKSKATLTVDTSSSTAYMQLSSLTSDDSAVYYCAITGTGGLAYWGQGTLVTVSA
VL: ENVLTQSPAIMSASLGEKVTMTCRASSSVNYMYWYQQKSDASPKLWIYFTSSLAPGVPGRFSGSGSGNSYSLTISTMEGEDAATYYCQQFTTSPFTFGSGTKLEIK
modifications: A2-7A05 VH Sequence; A2-7A05 VL Sequence
notes: tested as mouse hybridoma antibody and as human IgG4 chimera
- effect on α5β1 integrin binding to 12G10 ([2]; dilution series 10,000 to 0.64 ng/mL): did not reduce α5β1 integrin binding to 12G10

- reduction of α5β1 integrin binding to 12G10 ([2]; human IgG4 chimeric antibodies): approximately 50%
B2: A-15B08: anti-α5β1 antibody, VH SEQ ID NO:25, VL SEQ ID NO:26; tested as mouse hybridoma antibody and as human IgG4 chimera (antibody, V domains shown)
VH: QVQLKESGPGLVAPSQSLSITCTISGFSLTSYGVHWVRQPPGKGLEWLVVIWSDGSTTYNSTLKSRLSISKDNSKSQVFFKMNSLQTDDTAMYYCARHYDYDGDWFAYWGQGTLVTVSA
VL: QIVLTQSPAIMSASLGERVTMTCTASSRVSSNSLHWYQQKPGSSPKLWIYSTSNLASGVPARFSGSGSGTSYSLTISSMEAEDAATYYCHQYLRSPPTFGGGTKLEIK
modifications: A-15B08 VH Sequence; A-15B08 VL Sequence
notes: as for B1
